Residue numbers refer to the chain shown, from its start.
Assays:
PC14PE6 lung tumors = assay: orthotopic model of human lung cancer; assay type: in vivo, nude mice; details: intraperitoneal, 3 doses on days 6, 10 and 14
Method: To further assess the targeting ability of antibodies having an H8-calicheamicin conjugates, an orthotopic model for non-small cell and small cell cancer was used, essentially as described by Onn et al. (2003) Clin. Cancer Res. 9(15):5532-5539. In brief, human lung adenocarcinoma (PC14PE6) cells were injected into tail veins of nude mice, which then migrated to form tumors in lung. Tumors appeared as solid nodules in the lung parenchyma and caused hemorrhagic pleural effusions containing suspended tumor cells. Injection of control compounds and H8-calicheacmicin conjugates were administered by intraperitoneal injection to tumor-bearing mice beginning at 6 days after injection of tumor cells for a total of 3 doses given at 4-day intervals, i.e., on days 6, 10, and 14.

[1] = target: T1, human 5T4 antigen on cells (human, UniProt Q13641 32-420); assay: cell-based or functional assay
T1 construct: whole, on cells; also called 5T4 on MDAMB435/5T4 cells; 5T4 on CT26/5T4 cells
T1 sequence (looked up): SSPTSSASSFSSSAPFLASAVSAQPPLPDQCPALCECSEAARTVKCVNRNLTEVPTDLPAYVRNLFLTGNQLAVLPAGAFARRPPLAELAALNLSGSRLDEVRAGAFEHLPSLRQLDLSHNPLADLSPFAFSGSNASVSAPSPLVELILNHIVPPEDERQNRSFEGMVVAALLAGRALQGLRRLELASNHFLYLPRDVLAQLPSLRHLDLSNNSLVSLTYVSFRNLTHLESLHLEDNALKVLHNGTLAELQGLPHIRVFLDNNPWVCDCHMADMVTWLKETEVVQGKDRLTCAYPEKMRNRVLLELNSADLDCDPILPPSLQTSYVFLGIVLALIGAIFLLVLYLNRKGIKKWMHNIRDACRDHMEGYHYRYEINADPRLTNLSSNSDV

human 5T4 antigen [2] = target: T2, human 5T4 antigen (human, UniProt Q13641 32-355, limits assumed); assay: BIACORE
T2 construct: Isolated antigen as used in BIACORE and ELISA; also called 5T4 oncofetal antigen
T2 sequence (looked up): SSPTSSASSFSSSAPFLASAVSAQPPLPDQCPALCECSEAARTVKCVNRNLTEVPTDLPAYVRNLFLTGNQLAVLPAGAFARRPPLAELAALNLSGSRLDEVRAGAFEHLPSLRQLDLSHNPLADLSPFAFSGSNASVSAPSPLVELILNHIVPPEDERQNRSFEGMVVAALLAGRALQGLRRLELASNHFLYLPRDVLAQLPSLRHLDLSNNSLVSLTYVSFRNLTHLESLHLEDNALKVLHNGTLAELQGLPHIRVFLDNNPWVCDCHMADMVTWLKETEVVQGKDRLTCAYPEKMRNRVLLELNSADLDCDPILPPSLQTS

[3] = target: T1, human 5T4 antigen on cells; assay: FACS on MDAMB435/5T4 cells
[4] = target: T1, human 5T4 antigen on cells; assay: flow cytometry on MDAMB435/5T4 cells
[5] = target: T1, human 5T4 antigen on cells; assay: flow cytometry on N87, PC14PE6 and NCl-H157 cells (told of each)
human 5T4 antigen [6] = target: T2, human 5T4 antigen; assay: BIACORE, human 5T4 antigen immobilized on a CM5 chip, antibody 12.5 nM to 200 nM
Method: BIACORE® technology utilizes changes in the refractive index at the surface layer upon binding of the antibody to the 5T4 antigen immobilized on the layer. Binding is detected by surface plasmon resonance (SPR) of laser light refracting from the surface. Analysis of the signal kinetics on rate and off rate allows the discrimination between non-specific and specific interaction. The concentration of antibody used was in the range of 12.5 nM to 200 nM.

human 5T4 antigen [7] = target: T2, human 5T4 antigen; assay: BIACORE (plasmon resonance)
human 5T4 antigen [8] = target: T2, human 5T4 antigen; assay: competition ELISA on plate-coated human 5T4 antigen; competitor biotinylated chimeric H8 at its ED50
Method: ELISA plates were coated with human 5T4 antigen. To each well was added 100 μl of 1 μg/ml 5T4 antigen in PBS-CMF pH 7.2. The plates were incubated overnight at 4° C. After coating with antigen, plates were washed in a blocking solution of 0.02% casein in PBS-CMF, pH 7.2 for 2-4 hours at room temperature. […] Plates were washed 4 times with 200 μl of 0.03% TWEEN®-20 in PBS. The signal was developed for 10-15 minutes at room temperature following addition of 100 ∥l BIOFX® TMB (Biofx Laboratories, Inc. of Randallstown, Md.) per well. The reaction was stopped by addition of 100 μl per well of 0.18 N H₂SO₄. All incubation and wash steps were performed with gentle agitation. […] The ED50 of biotinylated antibody binding to antigen was determined by plotting OD₄₅₀ (duplicate data points averaged) as a function of biotinylated antibody concentration. […] The biotin label was amplified using streptavidin-HRP diluted 1:10,000 in assay buffer, followed by signal development and quantification as above.

CMA: anti-CD33 antibody (p67.6) conjugated to calicheamicin, AcBut linker; control conjugate
pleural effusions (PC14PE6 lung tumors): did not reduce the pleural effusions | survival of tumor-bearing animals (PC14PE6 lung tumors): slightly increased the average survival

B1: H8-AcBut-CalichDMH (antibody, V domains shown)
VH: EVQLQQSGPDLVKPGASVKISCKASGYSFTGYYMHWVKQSHGKSLEWIGRINPNNGVTLYNQKFKDKAILTVDKSSTTAYMELRSLTSEDSAVYYCARSTMITNYVMDYWGQVTSVTVSS
VL: SIVMTQTPTFLLVSAGDRVTITCKASQSVSNDVAWYQQKPGQSPTLLISYTSSRYAGVPDRFIGSGYGTDFTFTISTLQAEDLAVYFCQQDYNSPPTFGGGTKLEIK
ED50 (ng/ml calicheamicin), MTS vital dye, MDAMB435/5T4 cells [1]: 0.04 ng/mL

B2: H8 antibody/PEG-bis-maleimide (PEGmal2) (antibody, V domains shown)
VH: B1 VH
VL: B1 VL
notes: also called H8PEGmal2; H8PEG(mal2)
fraction of binding to 5T4 lost following antibody modification (human 5T4 antigen [2]): 43%

B3: H8 antibody/PEG-SPA (PEG2K) (antibody, V domains shown)
VH: B1 VH
VL: B1 VL
notes: also called H8PEG2K; H8PEG
fraction of binding to 5T4 lost following antibody modification (human 5T4 antigen [2]): 69%

B4: H8-AcPac-CalichDMH (antibody, V domains shown)
VH: B1 VH
VL: B1 VL
ED50 (ng/ml calicheamicin), MTS vital dye, MDAMB435/5T4 cells [1]: 0.02 ng/mL

B5: Semi-Humanized H8 (mVH/hVL1) (antibody, human IgG4 S228P, kappa, V domains shown)
VH: B1 VH
VL: DIVMTQSPDSLAVSLGERATINCKASQSVSNDVAWYQQKPGQSPKLLISYTSSRYAGVPDRFSGSGSGTDFTLTISSLQAEDVAVYFCQQDYNSPPTFGGGTKLEIKR
notes: murine H8 VH + mutated human IgG4; also called semi-humanized H8 antibody; semi-human anti-5T4 antibody
binding result [3]: binds

B6: H8PEGmal2-AcBut-CalichDMH (antibody, V domains shown)
VH: B1 VH
VL: B1 VL
ED50 (ng/ml calicheamicin), MTS vital dye, MDAMB435/5T4 cells [1]: 0.9 ng/mL

B7: murine H8 anti-5T4 antibody (antibody, V domains shown)
VH: B1 VH
VL: B1 VL
notes: also called mAb5T4; H8 antibody
fold signal over control IgG [4]: > 100 fold | fold signal over control IgG [5]: ~10 fold | Kd (human 5T4 antigen [6]): 0.58 nM | koff (human 5T4 antigen [6]): 5.9e-05 s⁻¹ | kon (human 5T4 antigen [6]): 100000 M⁻¹ s⁻¹

B8: H8-Amide-CalichDMH (antibody, V domains shown)
VH: B1 VH
VL: B1 VL
ED50 (ng/ml calicheamicin), MTS vital dye, MDAMB435/5T4 cells [1]: 0.18 ng/mL | fold cytotoxicity, 5T4-expressing against 5T4-negative cells [1]: 200 fold

B9: Murine H8/CM (antibody, V domains shown)
VH: B1 VH
VL: B1 VL
notes: also called murine H8-calicheamicin conjugates
Kd (human 5T4 antigen [7]): 0.58 nM | koff (human 5T4 antigen [7]): 5.9e-05 s⁻¹ | kon (human 5T4 antigen [7]): 100000 M⁻¹ s⁻¹

B10: Chimeric H8 (mVH/mVL) (antibody, V domains shown)
VH: B1 VH
VL: B1 VL
notes: also called chimeric H8 antibody; chimeric versions of H8
Kd (human 5T4 antigen [6]): 0.3 nM | koff (human 5T4 antigen [6]): 4.2e-05 s⁻¹ | kon (human 5T4 antigen [6]): 140000 M⁻¹ s⁻¹ | IC50 (human 5T4 antigen [8]): 1 nM

B11: H8 antibody/PEG-SBA (PEG5K) (antibody, V domains shown)
VH: B1 VH
VL: B1 VL
notes: also called H8PEG5K; H8PEG
fraction of binding to 5T4 lost following antibody modification (human 5T4 antigen [2]): 79%

B12: Humanized H8 version 2 (hVH2/hVL2) (antibody, human IgG4 S228P, kappa, V domains shown)
VH: QVQLVQSGAEVKKPGASVKVSCKASGYSFTGYYMHWVRQAPGQGLEWMGRINPNNGVTLYNQKFKDRVTMTRDTSISTAYMELSRLRSDDTAVYYCARSTMITNYVMDYWGQGTLVTVSS
VL: B5 VL with S43P, S49Y, F87Y
Kd (human 5T4 antigen [6]): 0.12 nM

B13: Humanized H8 version 2/AcBut/CalichDMH (antibody, human IgG4 S228P, kappa, V domains shown)
VH: B12 VH
VL: B5 VL with S43P, S49Y, F87Y
modifications: CalichDMH conjugated through the AcBut linker; residues not stated
notes: Conjugate sample contained 61 ug CalichDMH per mg protein, 1% free antibody, 1.4% aggregate; also called humanized H8 calicheamicin conjugate
Kd (human 5T4 antigen [7]): 0.26 nM | koff (human 5T4 antigen [7]): 3.4e-05 s⁻¹ | kon (human 5T4 antigen [7]): 130000 M⁻¹ s⁻¹

B14: Humanized H8 version 2/CM (antibody, human IgG4 S228P, kappa, V domains shown)
VH: B12 VH
VL: B5 VL with S43P, S49Y, F87Y
modifications: calicheamicin (CM) conjugated; linker and residues not stated
notes: also called humanized H8 version 2-calicheamicin conjugates
Kd (human 5T4 antigen [7]): 0.17 nM | koff (human 5T4 antigen [7]): 2e-05 s⁻¹ | kon (human 5T4 antigen [7]): 120000 M⁻¹ s⁻¹

B15: Humanized H8 version 1 (hVH1/hVL1) (antibody, human IgG4 S228P, kappa, V domains shown)
VH: B12 VH with R38K, A40S, M48I
VL: B5 VL
Kd (human 5T4 antigen [6]): 0.84 nM

B16: Humanized H8 version 3 (hVH3/hVL2) (antibody, human IgG4 S228P, kappa, V domains shown)
VH: B12 VH with M70I, I76T, R85S, D89E
VL: B5 VL with S43P, S49Y, F87Y
Kd (human 5T4 antigen [6]): 0.12 nM

Reference: patent US20060088522A1, “Humanized anti-5T4 antibodies and anti-5T4/calicheamicin conjugates” (Wyeth, priority 2004, published 2006)
